# From article PMC10869706, “Chp1 is a dedicated chaperone at the ribosome that safeguards eEF1A biogenesis” (Nature Communications, 2024)
# B1: Chp1 (in yeast cells expressing V5-eEF1A) [yeast (S. cerevisiae)] / WT eEF1A (V5-TEF2) [yeast (S. cerevisiae)] (parent complex)
# chain 1: MSTFNAETADNLEDIEKQFAVVAVEQAETYWKLLTSVPGSKLRLTKFDDEIYENFMERFPEYKDVERVKKFTEEELKTKEAKERWRKFFTIFEKKIEDYNFGTLLRTDASAEYGQFTTCFVVRLQFYAFEIARNKHGLNDWIVGQK
# chain 2: MGKEKSHINVVVIGHVDSGKSTTTGHLIYKCGGIDKRTIEKFEKEAAELGKGSFKYAWVLDKLKAERERGITIDIALWKFETPKYQVTVIDAPGHRDFIKNMITGTSQADCAILIIAGGVGEFEAGISKDGQTREHALLAFTLGVRQLIVAVNKMDSVKWDESRFQEIVKETSNFIKKVGYNPKTVPFVPISGWNGDNMIEATTNAPWYKGWEKETKAGVVKGKTLLEAIDAIEQPSRPTDKPLRLPLQDVYKIGGIGTVPVGRVETGVIKPGMVVTFAPAGVTTEVKSVEMHHEQLEQGVPGDNVGFNVKNVSVKEIRRGNVCGDAKNDPPKGCASFNATVIVLNHPGQISAGYSPVLDCHTAHIACRFDELLEKNDRRSGKKLEDHPKFLKSGDAALVKFVPSKPMCVEAFSEYPPLGRFAVRDMRQTVAVGVIKSVDKTEKAAKVTKAAQKAAKK
# Variants of: B1
# Test: co-IP (IP α-V5, blot α-Chp1), quantified; parent: 1; read off a plot
row,Variant,ratio to parent
1,chain 2 R264W,~0.3
2,chain 2 G70S,~0.25
3,chain 2 G382R,~0.5
4,chain 2 R421C,~1.2
5,chain 2 A125E,~0.5

# Now from value to variant:
row,ratio to parent,Variant
1,~0.45,chain 2 D91N
2,~2.4,chain 2 P331L
